From PMC3448639 come the findings set out here.

Holding throughout (details): glycan lost; control: wild type
Data set [1] is described as follows: selective uptake of [3H]COE from HDL.
Data set [2] is described as follows: [3H]cholesterol release from cells to HDL.
The nature of data set [3]: flow cytometry, extracellular-domain antibody. In general terms: A flow cytometer gives signals particle by particle.
Data set [4] is described as follows: cell surface biotinylation, immunoblot densitometry. (Immunoblotting shows a protein as a band on a membrane.)
Data set [5] in a line: cholesterol oxidase sensitivity, cholestenone by TLC.

B1: SR-BI (scavenger receptor class B type I; CLA-1): T175A (protein)
parent chain: MGCSAKARWAAGALGVAGLLCAVLGAVMIVMVPSLIKQQVLKNVRIDPSSLSFNMWKEIPIPFYLSVYFFDVMNPSEILKGEKPQVRERGPYVYREFRHKSNITFNNNDTVSFLEYRTFQFQPSKSHGSESDYIVMPNILVLGAAVMMENKPMTLKLIMTLAFTTLGERAFMNRTVGEIMWGYKDPLVNLINKYFPGMFPFKDKFGLFAELNNSDSGLFTVFTGVQNISRIHLVDKWNGLSKVDFWHSDQCNMINGTSGQMWPPFMTPESSLEFYSPEACRSMKLMYKESGVFEGIPTYRFVAPKTLFANGSIYPPNEGFCPCLESGIQNVSTCRFSAPLFLSHPHFLNADPVLAEAVTGLHPNQEAHSLFLDIHPVTGIPMNCSVKLQLSLYMKSVAGIGQTGKIEPVVLPLLWFAESGAMEGETLHTFYTQLVLMPKVMHYAQYVLLALGCVLLLVPVICQIRSQVGAGQRAARADSHSLACWGKGASDRTLWPTAAWSPPPAAVLRLCRSGSGHCWGLRSTLASFACRVATTLPVLEGLGPSLGGGTGS
B1: the “other: transport activity” value in data set [1] was “decreases”. In data set [2], the “other: free cholesterol efflux” value is “decreases”. Moreover, the localisation_or_trafficking result in data set [3] is “decreases”. In addition, in data set [4], the “localisation_or_trafficking, percent_of_wt” value was “decreases, more than 50% less vs 100”. Moreover, the “other: plasma membrane free cholesterol redistribution” value in data set [5] is “decreases”.
